Results: US20110091994A1, “Methods for Screening Compounds for Treating and/or Preventing an Hepatitis C Virus Infection” (priority 2008, published 2011)

B1: FUCA2 (protein, UniProt Q9BTY2 29-467, looked up)
Plasma alpha-L-fucosidase: HSATRFDPTWESLDARQLPAWFDQAKFGIFIHWGVFSVPSFGSEWFWWYWQKEKIPKYVEFMKDNYPPSFKYEDFGPLFTAKFFNANQWADIFQASGAKYIVLTSKHHEGFTLWGSEYSWNWNAIDEGPKRDIVKELEVAIRNRTDLRFGLYYSLFEWFHPLFLEDESSSFHKRQFPVSKTLPELYELVNNYQPEVLWSDGDGGAPDQYWNSTGFLAWLYNESPVRGTVVTNDRWGAGSICKHGGFYTCSDRYNPGHLLPHKWENCMTIDKLSWGYRREAGISDYLTIEELVKQLVETVSCGGNLLMNIGPTLDGTISVVFEERLRQMGSWLKVNGEAIYETHTWRSQNDTVTPDVWYTSKPKEKLVYAIFLKWPTSGQLFLGHPKAILGATEVKLLGHGQPLNWISLEQNGIMVELPQLTIHQMPCKWGWALALTNVI
B2: HOMER3 (protein, UniProt Q9NSC5 1-361, looked up)
Homer protein homolog 3: MSTAREQPIFSTRAHVFQIDPATKRNWIPAGKHALTVSYFYDATRNVYRIISIGGAKAIINSTVTPNMTFTKTSQKFGQWADSRANTVYGLGFASEQHLTQFAEKFQEVKEAARLAREKSQDGGELTSPALGLASHQVPPSPLVSANGPGEEKLFRSQSADAPGPTERERLKKMLSEGSVGEVQWEAEFFALQDSNNKLAGALREANAAAAQWRQQLEAQRAEAERLRQRVAELEAQAASEVTPTGEKEGLGQGQSLEQLEALVQTKDQEIQTLKSQTGGPREALEAAEREETQQKVQDLETRNAELEHQLRAMERSLEEARAERERARAEVGRAAQLLDVSLFELSELREGLARLAEAAP
B3: KIF17 (protein, UniProt Q9P2E2 1-1029, looked up)
Kinesin-like protein KIF17: MASEAVKVVVRCRPMNQRERELRCQPVVTVDCARAQCCIQNPGAADEPPKQFTFDGAYHVDHVTEQIYNEIAYPLVEGVTEGYNGTIFAYGQTGSGKSFTMQGLPDPPSQRGIIPRAFEHVFESVQCAENTKFLVRASYLEIYNEDVRDLLGADTKQKLELKEHPEKGVYVKGLSMHTVHSVAQCEHIMETGWKNRSVGYTLMNKDSSRSHSIFTISIEMSAVDERGKDHLRAGKLNLVDLAGSERQSKTGATGERLKEATKINLSLSALGNVISALVDGRCKHVPYRDSKLTRLLQDSLGGNTKTLMVACLSPADNNYDETLSTLRYANRAKNIRNKPRINEDPKDALLREYQEEIKKLKAILTQQMSPSSLSALLSRQVPPDPVQVEEKLLPQPVIQHDVEAEKQLIREEYEERLARLKADYKAEQESRARLEEDITAMRNSYDVRLSTLEENLRKETEAVLQVGVLYKAEVMSRAEFASSAEYPPAFQYETVVKPKVFSTTDTLPSDDVSKTQVSSRFAELPKVEPSKSEISLGSSESSSLEETSVSEAFPGPEEPSNVEVSMPTEESRSRYFLDECLGQEAAGHLLGEQNYLPQEEPQEVPLQGLLGLQDPFAEVEAKLARLSSTVARTDAPQADVPKVPVQVPAPTDLLEPSDARPEAEAADDFPPRPEVDLASEVALEVVRTAEPGVWLEAQAPVALVAQPEPLPATAGVKRESVGMEVAVLTDDPLPVVDQQQVLARLQLLEQQVVGGEQAKNKDLKEKHKRRKRYADERRKQLVAALQNSDEDSGDWVLLNVYDSIQEEVRAKSKLLEKMQRKLRAAEVEIKDLQSEFQLEKIDYLATIRRQERDSMLLQQLLEQVQPLIRRDCNYSNLEKILRESCWDEDNGFWKIPHPVITKTSLPVAVSTGPQNKPARKTSAADNGEPNMEDDRYRLMLSRSNSENIASNYFRSKRASQILSTDARKSLTHHNSPPGLSCPLSNNSAIPPTQAPEMPQPRPFRLESLDIPFTKAKRKKSKSNFGSEPL
B4: FRMPD4 (protein, UniProt Q14CM0 1-1322, looked up)
FERM and PDZ …: MDVFSFVKIAKLSSHRTKSSGWPPPSGTWGLSQVPPYGWEMTANRDGRDYFINHMTQAIPFDDPRLESCQIIPPAPRKVEMRRDPVLGFGFVAGSEKPVVVRSVTPGGPSEGKLIPGDQIVMINDEPVSAAPRERVIDLVRSCKESILLTVIQPYPSPKSAFISAAKKARLKSNPVKVRFSEEVIINGQVSETVKDNSLLFMPNVLKVYLENGQTKSFRFDCSTSIKDVILTLQEKLSIKGIEHFSLMLEQRTEGAGTKLLLLHEQETLTQVTQRPSSHKMRCLFRISFVPKDPIDLLRRDPVAFEYLYVQSCNDVVQERFGPELKYDIALRLAALQMYIATVTTKQTQKISLKYIEKEWGLETFLPSAVLQSMKEKNIKKALSHLVKANQNLVPPGKKLSALQAKVHYLKFLSDLRLYGGRVFKATLVQAEKRSEVTLLVGPRYGISHVINTKTNLVALLADFSHVNRIEMFSEEESLVRVELHVLDVKPITLLMESSDAMNLACLTAGYYRLLVDSRRSIFNMANKKNTATQETGPENKGKHNLLGPDWNCIPQMTTFIGEGEQEAQITYIDSKQKTVEITDSTMCPKEHRHLYIDNAYSSDGLNQQLSQPGEAPCEADYRSLAQRSLLTLSGPETLKKAQESPRGAKVSFIFGDFALDDGISPPTLGYETLLDEGPEMLEKQRNLYIGSANDMKGLDLTPEAEGIQFVENSVYANIGDVKSFQAAEGIEEPLLHDICYAENTDDAEDEDEVSCEEDLVVGEMNQPAILNLSGSSDDIIDLTSLPPPEGDDNEDDFLLRSLNMAIAAPPPGFRDSSDEEDSQSQAASFPEDKEKGSSLQNDEIPVSLIDAVPTSAEGKCEKGLDNAVVSTLGALEALSVSEEQQTSDNSGVAILRAYSPESSSDSGNETNSSEMTESSELATAQKQSENLSRMFLATHEGYHPLAEEQTEFPASKTPAGGLPPKSSHALAARPATDLPPKVVPSKQLLHSDHMEMEPETMETKSVTDYFSKLHMGSVAYSCTSKRKSKLADGEGKAPPNGNTTGKKQQGTKTAEMEEEASGKFGTVSSRDSQHLSTFNLERTAFRKDSQRWYVATEGGMAEKSGLEAATGKTFPRASGLGAREAEGKEEGAPDGETSDGSGLGQGDRFLTDVTCASSAKDLDNPEDADSSTCDHPSKLPEADESVARLCDYHLAKRMSSLQSEGHFSLQSSQGSSVDAGCGTGSSGSACATPVESPLCPSLGKHLIPDASGKGVNYIPSEERAPGLPNHGATFKELHPQTEGMCPRMTVPALHTAINTEPLFGTLRDGCHRLPKIKETTV
B5: IQWD1 (protein, UniProt Q58WW2 1-860, looked up)
DDB1- and CUL4-associated …: MSRGGSYPHLLWDVRKRSLGLEDPSRLRSRYLGRREFIQRLKLEATLNVHDGCVNTICWNDTGEYILSGSDDTKLVISNPYSRKVLTTIRSGHRANIFSAKFLPCTNDKQIVSCSGDGVIFYTNVEQDAETNRQCQFTCHYGTTYEIMTVPNDPYTFLSCGEDGTVRWFDTRIKTSCTKEDCKDDILINCRRAATSVAICPPIPYYLAVGCSDSSVRIYDRRMLGTRATGNYAGRGTTGMVARFIPSHLNNKSCRVTSLCYSEDGQEILVSYSSDYIYLFDPKDDTARELKTPSAEERREELRQPPVKRLRLRGDWSDTGPRARPESERERDGEQSPNVSLMQRMSDMLSRWFEEASEVAQSNRGRGRSRPRGGTSQSDISTLPTVPSSPDLEVSETAMEVDTPAEQFLQPSTSSTMSAQAHSTSSPTESPHSTPLLSSPDSEQRQSVEASGHHTHHQSDNNNEKLSPKPGTGEPVLSLHYSTEGTTTSTIKLNFTDEWSSIASSSRGIGSHCKSEGQEESFVPQSSVQPPEGDSETKAPEESSEDVTKYQEGVSAENPVENHINITQSDKFTAKPLDSNSGERNDLNLDRSCGVPEESASSEKAKEPETSDQTSTESATNENNTNPEPQFQTEATGPSAHEETSTRDSALQDTDDSDDDPVLIPGARYRAGPGDRRSAVARIQEFFRRRKERKEMEELDTLNIRRPLVKMVYKGHRNSRTMIKEANFWGANFVMSGSDCGHIFIWDRHTAEHLMLLEADNHVVNCLQPHPFDPILASSGIDYDIKIWSPLEESRIFNRKLADEVITRNELMLEETRNTITVPASFMLRMLASLNHIRADRLEGDRSEGSGQENENEDEE
B6: GNB2 (protein, UniProt P62879 2-340, looked up)
Guanine nucleotide-binding …: SELEQLRQEAEQLRNQIRDARKACGDSTLTQITAGLDPVGRIQMRTRRTLRGHLAKIYAMHWGTDSRLLVSASQDGKLIIWDSYTTNKVHAIPLRSSWVMTCAYAPSGNFVACGGLDNICSIYSLKTREGNVRVSRELPGHTGYLSCCRFLDDNQIITSSGDTTCALWDIETGQQTVGFAGHSGDVMSLSLAPDGRTFVSGACDASIKLWDVRDSMCRQTFIGHESDINAVAFFPNGYAFTTGSDDATCRLFDLRADQELLMYSHDNIICGITSVAFSRSGRLLLAGYDDFNCNIWDAMKGDRAGVLAGHDNRVSCLGVTDDGMAVATGSWDSFLKIWN
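Wherever IMAP Y2H IMAP1 (number of IST) is given: yeast two-hybrid screens using HCV genotype 1b proteins fused to Gal4-DB as baits against prey cDNA libraries from human spleen and foetal brain, IMAP1 via transformation and IMAP2 via mating.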
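Wherever IMAP Y2H IMAP2 (number of IST) is given: yeast two-hybrid screens using HCV genotype 1b proteins fused to Gal4-DB as baits against prey cDNA libraries from human spleen and foetal brain, IMAP1 via transformation and IMAP2 via mating.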
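Wherever Interaction with viral protein is given: yeast two-hybrid screens using HCV genotype 1b proteins fused to Gal4-DB as baits against prey cDNA libraries from human spleen and foetal brain, IMAP1 via transformation and IMAP2 via mating.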
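Wherever Y2H matrices is given: yeast two-hybrid pairwise tests of interactions first found in Y2H screens of HCV bait proteins against human cDNA libraries.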

Each molecule was assayed against T1, HCV ORFs (Gal4-DB fusions) (Hepatitis C virus genotype 1b, UniProt Q9WMX2) (assay: not given). Conditions: HCV protein NS3 as bait; human protein as prey.
T1 construct: expressed in transfected cells; host or cells: Saccharomyces cerevisiae MAV203 (IMAP1) / AH109 (IMAP2)
T1 sequence (Q9WMX2 1027-1657): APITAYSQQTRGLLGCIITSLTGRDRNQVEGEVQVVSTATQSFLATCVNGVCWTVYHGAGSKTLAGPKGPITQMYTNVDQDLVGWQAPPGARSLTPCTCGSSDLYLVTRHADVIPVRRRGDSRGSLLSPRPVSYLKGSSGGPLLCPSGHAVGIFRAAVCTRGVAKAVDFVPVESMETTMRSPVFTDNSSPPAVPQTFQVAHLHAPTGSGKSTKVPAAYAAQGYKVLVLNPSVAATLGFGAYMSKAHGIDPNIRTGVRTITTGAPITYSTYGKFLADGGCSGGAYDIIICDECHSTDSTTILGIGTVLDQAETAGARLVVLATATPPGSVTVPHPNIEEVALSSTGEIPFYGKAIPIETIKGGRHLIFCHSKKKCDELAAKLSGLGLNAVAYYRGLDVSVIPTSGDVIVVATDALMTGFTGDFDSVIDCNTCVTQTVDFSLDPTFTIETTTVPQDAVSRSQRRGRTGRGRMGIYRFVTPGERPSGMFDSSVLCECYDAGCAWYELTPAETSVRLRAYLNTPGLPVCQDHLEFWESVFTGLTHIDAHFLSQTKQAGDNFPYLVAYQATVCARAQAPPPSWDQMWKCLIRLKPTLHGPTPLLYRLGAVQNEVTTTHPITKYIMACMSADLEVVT
Type: binding, HCV genotype 1b, isolate con1
With B1 the “IMAP Y2H IMAP1 (number of IST)” value was 2.
With B2 the “IMAP Y2H IMAP1 (number of IST)” value was 4 and the “IMAP Y2H IMAP2 (number of IST)” value was 1.
For B3, the “IMAP Y2H IMAP1 (number of IST)” value was 2.
B4 was tested, and the “IMAP Y2H IMAP1 (number of IST)” value was 1.
For B5, the “IMAP Y2H IMAP1 (number of IST)” value was 2.
B6 was tested, and the “IMAP Y2H IMAP1 (number of IST)” value was 1.

The molecules below were run on HCV ORFs (Gal4-DB fusions) (assay: not given). Conditions: human protein listed by gene symbol; the value names the HCV protein it interacts with.
Type: binding, HCV genotype 1b, isolate con1
B1 was tested, and the “Interaction with viral protein” value was “NS3”.
With B2 the “Interaction with viral protein” value was “NS3”.
In the case of B3, the “Interaction with viral protein” value is reported as “NS3”.
B4 was tested, and the “Interaction with viral protein” value was “NS3”.
B5 was tested, and the “Interaction with viral protein” value was “NS3”.
In the case of B6, the “Interaction with viral protein” value is reported as “NS3”.

Each molecule was assayed against T2, HCV proteins (Hepatitis C virus genotype 1b, UniProt Q9WMX2) (assay: Validation by Y2H pairwise matrices). Conditions: validation of interaction with HCV protein NS3.
T2 construct: expressed in transfected cells
T2 sequence (Q9WMX2 1027-1657): as above
Type: binding
With B1 the Y2H matrices was “+”.
In the case of B2, the Y2H matrices is reported as “+”.
With B3 the Y2H matrices was “+”.
In the case of B4, the Y2H matrices is reported as “+”.
For B5, the Y2H matrices was “+”.
For B6, the Y2H matrices was “+”.
